{"source": "patent US11906519B2", "about": "“Methods for identifying LILRB-blocking antibodies” (THE BOARD OF REGENTS OF THE UNIVERSITY OF TEXAS SYSTEM, priority 2016, dated 2024)", "molecules": {"B1": {"name": "arginase-1: recombinant Arginase-1 protein supplemented to culture (protein, UniProt P05089 1-322, looked up)", "Arginase-1": "MSAKSRTIGIIGAPFSKGQPRGGVEEGPTVLRKAGLLEKLKEQECDVKDYGDLPFADIPNDSPFQIVKNPRSVGKASEQLAGKVAEVKKNGRISLVLGGDHSLAIGSISGHARVHPDLGVIWVDAHTDINTPLTTTSGNLHGQPVSFLLKELKGKIPDVPGFSWVTPCISAKDIVYIGLRDVDPGEHYILKTLGIKYFSMTEVDRLGIGKVMEETLSYLLGRKKRPIHLSFDVDGLDPSFTPATGTPVVGGLTYREGLYITEEIYKTGLLSGLDIMEVNPSLGKTPEEVTRTVNTAVAITLACFGLAREGNHKPIDYLNPPK"}}, "type_in_all_cases": "cell-based, human", "key": {"[1]": {"test_system": "THP-1 cells", "assay": "Transwell trans-endothelial migration of THP-1 cells", "conditions": "lilrb4-KO THP-1, recombinant protein supplemented"}, "[2]": {"test_system": "MV4-11 cells", "assay": "Transwell trans-endothelial migration of MV4-11 cells", "conditions": "lilrb4-KO MV4-11, recombinant protein supplemented", "protocol": "Transwell assay. To test the cell plasticity, 1×10^5 MV4-11 cells were labelled with CFSE (Invitrogen) and treated with 100 μg/ml of anti-LILRB4 antibody C84 or control antibody mIgG and cultured in the upper chamber of well in a transwell plate (Corning). After 18 h, cells in lower chamber were counted. To test the ability of AML cells to migrate through endothelial cells, 3×10^5 human umbilical vein endothelial cells (HUVEC) cells were cultured on the transwell membrane. After 3 days, 1×10^5 CFSE-labelled MV4-11 cells were seeded in the upper chamber with 100 μg/ml of C84 or mIgG. After 18 h, cells in lower chamber were counted."}, "[3]": {"test_system": "T cells co-cultured with THP-1 cells", "assay": "Tumor cell/T cell co-culture assay", "conditions": "T cells with irradiated THP-1 cells, protein supplemented", "protocol": "Tumor cell/T cell co-culture assay. Human T cells isolated from health donor peripheral blood (PB009-1-0, Allcells) were co-cultured with irradiated (28 Gy) THP-1 cells in a U-bottom 96 well-plate for 3-7 days. Anti-CD3/CD28-coated beads (#11161D, Thermo Fisher), 50 U/ml recombinant human IL-2, and 5 ng/ml recombinant human IL-7 were supplemented to the medium. In some experiments, THP-1 cells were cultured in the upper chamber of transwell inserts (pore size is 3 μM, #09-761-80, Thermo Fisher) for the U-bottom 96 well-plate. For primary AML or B-ALL samples, patient CD3^+ T cells were collected and patient leukemia cells were sorted as CD33^+ and CD19^+ for AML and B-ALL, respectively.\nCD8^+ T cells (5×10^4 per well) isolated from hPBMCs of a healthy donor (Interstate Blood Bank) were stimulated with anti-CD3/CD28/CD137-coated beads (11163D, Thermo Fisher) or cultured without stimulation for 2 days in a 96-well plate. Then, 5×10^3 human leukemia THP-1-Luc-GFP cells and 50 to 500 μg/ml anti-LILRB4 antibody C84 or control antibody mIgG were added. Cell numbers were determined on day 7 in triplicate wells. Anti-CD8 and anti-CD28 were used to detect human CTL cells; THP-1 cells were positive for GFP. […]"}}, "data": [{"molecule": "B1", "values": [{"measurement": "Migration ability of THP-1 cells across endothelial cells", "setting": "[1]", "value": "increased"}, {"measurement": "Migration ability of MV4-11 cells across endothelial cells", "setting": "[2]", "value": "increased"}, {"measurement": "T cell proliferation in coculture", "setting": "[3]", "value": "decreased"}]}]}
